The source of these data is paper PMC10593839, “The liver microenvironment orchestrates FGL1-mediated immune escape and progression of metastatic colorectal cancer” (Nature Communications, 2023).

This test deals with T1, recombinant hLAG-3 (lymphocyte activating 3) (human, UniProt P18627 23-450).
T1 construct: Bought recombinant protein; source: bought: ABclonal Technology
T1 sequence (looked up): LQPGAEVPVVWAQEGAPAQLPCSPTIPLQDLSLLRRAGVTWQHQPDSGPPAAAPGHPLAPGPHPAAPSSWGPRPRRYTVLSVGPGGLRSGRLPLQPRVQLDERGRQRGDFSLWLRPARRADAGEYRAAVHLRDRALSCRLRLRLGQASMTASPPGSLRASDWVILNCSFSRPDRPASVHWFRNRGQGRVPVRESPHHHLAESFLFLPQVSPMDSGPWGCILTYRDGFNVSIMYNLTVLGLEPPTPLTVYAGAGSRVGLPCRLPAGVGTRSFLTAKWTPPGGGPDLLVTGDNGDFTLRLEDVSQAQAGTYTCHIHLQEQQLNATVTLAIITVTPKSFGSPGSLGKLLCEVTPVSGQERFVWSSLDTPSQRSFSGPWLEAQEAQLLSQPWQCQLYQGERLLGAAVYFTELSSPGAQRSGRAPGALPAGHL
The experiment in a line: ELISA; recombinant hLAG-3 (1 μg/mL) coated on ELISA microwells; different amounts of recombinant hFGL1 incubated for 1 h; detected with HRP-conjugated anti-hFGL1 antibody, OD 450 nm. The settings on record: both partners purified.

B1: recombinant hFGL1 (fibrinogen-like protein 1) (ligand, human, UniProt Q08830 23-312, looked up)
chain: LEDCAQEQMRLRAQVRLLETRVKQQQVKIKQLLQENEVQFLDKGDENTVIDLGSKRQYADCSEIFNDGYKLSGFYKIKPLQSPAEFSVYCDMSDGGGWTVIQRRSDGSENFNRGWKDYENGFGNFVQKHGEYWLGNKNLHFLTTQEDYTLKIDLADFEKNSRYAQYKNFKVGDEKNFYELNIGEYSGTAGDSLAGNFHPEVQWWASHQRMKFSTWDRDHDNYEGNCAEEDQSGWWFNRCHSANLNGVYYSGPYTAKTDNGIVWYTWHGWWYSLKSVVMKIRPNDFIPNVI
notes: fibrinogen-like protein 1 (FGL1), human, recombinant; Bought recombinant protein; also called HFREP1; source: bought: ABclonal Technology
As to B1, the binding result is “binds”.
